# Data from patent US20240002482A1 (BEIJING SOLOBIO GENETECHNOLOGY, published 2024).
# B1: anti-PcrV/anti-Psl bispecific antibody STS7B15925M (bispecific antibody)
# heavy: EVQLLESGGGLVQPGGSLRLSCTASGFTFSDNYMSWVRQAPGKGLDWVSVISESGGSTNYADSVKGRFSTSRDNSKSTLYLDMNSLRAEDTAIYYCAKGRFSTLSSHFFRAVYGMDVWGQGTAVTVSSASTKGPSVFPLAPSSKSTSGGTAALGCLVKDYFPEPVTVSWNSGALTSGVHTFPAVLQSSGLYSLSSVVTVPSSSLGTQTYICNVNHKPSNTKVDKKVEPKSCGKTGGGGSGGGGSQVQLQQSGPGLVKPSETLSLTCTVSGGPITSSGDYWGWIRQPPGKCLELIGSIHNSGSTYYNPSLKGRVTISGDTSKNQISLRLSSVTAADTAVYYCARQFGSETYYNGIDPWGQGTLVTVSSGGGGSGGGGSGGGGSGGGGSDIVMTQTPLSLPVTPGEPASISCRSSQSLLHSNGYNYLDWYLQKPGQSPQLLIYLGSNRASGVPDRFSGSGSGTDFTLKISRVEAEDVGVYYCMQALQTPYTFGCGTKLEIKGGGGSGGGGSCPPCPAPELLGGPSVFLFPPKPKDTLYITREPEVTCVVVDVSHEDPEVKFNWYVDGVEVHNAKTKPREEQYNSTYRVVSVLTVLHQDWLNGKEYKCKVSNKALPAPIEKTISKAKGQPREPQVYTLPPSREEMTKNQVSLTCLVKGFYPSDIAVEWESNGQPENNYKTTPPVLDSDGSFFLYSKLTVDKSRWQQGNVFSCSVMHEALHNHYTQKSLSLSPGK
# light: DIQLTQSPSSLSASVGDRVTITCRASQGISSYLAWYQQKPGKAPKLLIYAASTLQSGVPSRFSGSGSGTDFTLTISSLQPEDFATYYCQQLSSYPLTFGGGTKVEIKRTVAAPSVFIFPPSDEQLKSGTASVVCLLNNFYPREAKVQWKVDNALQSGNSQESVTEQDSKDSTYSLSSTLTLSKADYEKHKVYACEVTHQGLSSPVTKSFNRGEC
# notes: Chimeric heavy chain: VH-CH1-linker-scFv(anti-Psl)-linker-CH2-CH3; The Fab is from 7B1 (anti-PcrV); Optimized variant of STS7B15925
# B2: anti-PcrV/anti-Psl bispecific antibody STS7B112M (bispecific antibody)
# heavy: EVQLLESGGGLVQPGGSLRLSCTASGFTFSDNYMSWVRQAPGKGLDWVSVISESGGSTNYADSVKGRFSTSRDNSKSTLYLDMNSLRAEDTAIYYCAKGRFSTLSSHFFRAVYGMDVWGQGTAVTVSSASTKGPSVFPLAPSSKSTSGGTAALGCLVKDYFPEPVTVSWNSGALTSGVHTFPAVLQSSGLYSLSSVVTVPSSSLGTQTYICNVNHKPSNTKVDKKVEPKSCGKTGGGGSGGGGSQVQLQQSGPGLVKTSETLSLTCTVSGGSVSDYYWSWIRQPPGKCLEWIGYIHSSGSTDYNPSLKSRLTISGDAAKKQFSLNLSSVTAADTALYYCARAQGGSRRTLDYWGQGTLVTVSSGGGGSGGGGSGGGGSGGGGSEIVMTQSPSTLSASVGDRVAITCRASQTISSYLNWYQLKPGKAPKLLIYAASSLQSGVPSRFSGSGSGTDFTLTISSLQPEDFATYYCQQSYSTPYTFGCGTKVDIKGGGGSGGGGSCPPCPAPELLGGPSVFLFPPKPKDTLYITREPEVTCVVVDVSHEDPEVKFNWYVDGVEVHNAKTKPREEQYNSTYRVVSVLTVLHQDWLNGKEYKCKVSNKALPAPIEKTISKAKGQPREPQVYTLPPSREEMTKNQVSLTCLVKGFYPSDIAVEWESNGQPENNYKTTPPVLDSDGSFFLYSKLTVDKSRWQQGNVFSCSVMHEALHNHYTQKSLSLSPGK
# light: DIQLTQSPSSLSASVGDRVTITCRASQGISSYLAWYQQKPGKAPKLLIYAASTLQSGVPSRFSGSGSGTDFTLTISSLQPEDFATYYCQQLSSYPLTFGGGTKVEIKRTVAAPSVFIFPPSDEQLKSGTASVVCLLNNFYPREAKVQWKVDNALQSGNSQESVTEQDSKDSTYSLSSTLTLSKADYEKHKVYACEVTHQGLSSPVTKSFNRGEC
# notes: Chimeric heavy chain: 7B1 VH-CH1-linker-scFv(anti-Psl 3F12)-linker-CH2-CH3
# B3: anti-PcrV/anti-Psl bispecific antibody STS7B1H924M (bispecific antibody)
# heavy: EVQLLESGGGLVQPGGSLRLSCTASGFTFSDNYMSWVRQAPGKGLDWVSVISESGGSTNYADSVKGRFSTSRDNSKSTLYLDMNSLRAEDTAIYYCAKGRFSTLSSHFFRAVYGMDVWGQGTAVTVSSASTKGPSVFPLAPSSKSTSGGTAALGCLVKDYFPEPVTVSWNSGALTSGVHTFPAVLQSSGLYSLSSVVTVPSSSLGTQTYICNVNHKPSNTKVDKKVEPKSCGKTGGGGSGGGGSQVQLVQSGAEVKKPGASVKVSCKASGDTSTIHSVHWVRQAPGQCLEWMGTIISSGTTTTYAQSFQDRVSMTIDRSTSTGYMELSSLRFEDTAVYYCTTDGTSWGQGTLVTVSSGGGGSGGGGSGGGGSGGGGSDIQLTQSPSSVSASVGDRVTIACRASQGISSWLAWYQQKPGKAPKLLIYHASTLESGVPSRFSGSGSGTDFTLTISSLQPEDFATYYCLQASSLPHTFGCGTKLEIKGGGGSGGGGSCPPCPAPELLGGPSVFLFPPKPKDTLYITREPEVTCVVVDVSHEDPEVKFNWYVDGVEVHNAKTKPREEQYNSTYRVVSVLTVLHQDWLNGKEYKCKVSNKALPAPIEKTISKAKGQPREPQVYTLPPSREEMTKNQVSLTCLVKGFYPSDIAVEWESNGQPENNYKTTPPVLDSDGSFFLYSKLTVDKSRWQQGNVFSCSVMHEALHNHYTQKSLSLSPGK
# light: DIQLTQSPSSLSASVGDRVTITCRASQGISSYLAWYQQKPGKAPKLLIYAASTLQSGVPSRFSGSGSGTDFTLTISSLQPEDFATYYCQQLSSYPLTFGGGTKVEIKRTVAAPSVFIFPPSDEQLKSGTASVVCLLNNFYPREAKVQWKVDNALQSGNSQESVTEQDSKDSTYSLSSTLTLSKADYEKHKVYACEVTHQGLSSPVTKSFNRGEC
# notes: Chimeric heavy chain: 7B1 VH-CH1-linker-scFv(anti-Psl 7H924)-linker-CH2-CH3
# B4: anti-PcrV/anti-Psl bispecific antibody STS7B15921M (bispecific antibody)
# heavy: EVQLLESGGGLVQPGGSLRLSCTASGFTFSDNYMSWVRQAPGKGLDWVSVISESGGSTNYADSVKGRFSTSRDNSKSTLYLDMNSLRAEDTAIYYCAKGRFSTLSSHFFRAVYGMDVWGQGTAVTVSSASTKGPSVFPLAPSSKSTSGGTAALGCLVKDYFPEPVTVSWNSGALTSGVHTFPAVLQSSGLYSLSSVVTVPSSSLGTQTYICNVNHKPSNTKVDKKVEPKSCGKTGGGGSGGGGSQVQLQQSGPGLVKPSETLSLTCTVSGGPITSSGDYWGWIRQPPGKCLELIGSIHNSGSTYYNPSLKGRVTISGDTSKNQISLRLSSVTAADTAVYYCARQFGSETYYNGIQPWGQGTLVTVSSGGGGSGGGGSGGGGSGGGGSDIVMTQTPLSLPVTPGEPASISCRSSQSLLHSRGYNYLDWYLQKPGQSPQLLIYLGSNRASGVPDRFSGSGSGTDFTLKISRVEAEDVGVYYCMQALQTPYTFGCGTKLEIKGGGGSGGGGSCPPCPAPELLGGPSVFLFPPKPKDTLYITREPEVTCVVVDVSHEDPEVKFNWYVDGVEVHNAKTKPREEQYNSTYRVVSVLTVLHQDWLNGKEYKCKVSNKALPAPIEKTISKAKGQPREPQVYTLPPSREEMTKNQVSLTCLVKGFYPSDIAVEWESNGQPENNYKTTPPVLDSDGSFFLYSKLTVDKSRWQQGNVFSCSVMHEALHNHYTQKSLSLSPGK
# light: DIQLTQSPSSLSASVGDRVTITCRASQGISSYLAWYQQKPGKAPKLLIYAASTLQSGVPSRFSGSGSGTDFTLTISSLQPEDFATYYCQQLSSYPLTFGGGTKVEIKRTVAAPSVFIFPPSDEQLKSGTASVVCLLNNFYPREAKVQWKVDNALQSGNSQESVTEQDSKDSTYSLSSTLTLSKADYEKHKVYACEVTHQGLSSPVTKSFNRGEC
# notes: Chimeric heavy chain: 7B1 VH-CH1-linker-scFv(anti-Psl P5921)-linker-CH2-CH3
# B5: anti-PcrV/anti-Psl bispecific antibody STS7B11201M (bispecific antibody)
# heavy: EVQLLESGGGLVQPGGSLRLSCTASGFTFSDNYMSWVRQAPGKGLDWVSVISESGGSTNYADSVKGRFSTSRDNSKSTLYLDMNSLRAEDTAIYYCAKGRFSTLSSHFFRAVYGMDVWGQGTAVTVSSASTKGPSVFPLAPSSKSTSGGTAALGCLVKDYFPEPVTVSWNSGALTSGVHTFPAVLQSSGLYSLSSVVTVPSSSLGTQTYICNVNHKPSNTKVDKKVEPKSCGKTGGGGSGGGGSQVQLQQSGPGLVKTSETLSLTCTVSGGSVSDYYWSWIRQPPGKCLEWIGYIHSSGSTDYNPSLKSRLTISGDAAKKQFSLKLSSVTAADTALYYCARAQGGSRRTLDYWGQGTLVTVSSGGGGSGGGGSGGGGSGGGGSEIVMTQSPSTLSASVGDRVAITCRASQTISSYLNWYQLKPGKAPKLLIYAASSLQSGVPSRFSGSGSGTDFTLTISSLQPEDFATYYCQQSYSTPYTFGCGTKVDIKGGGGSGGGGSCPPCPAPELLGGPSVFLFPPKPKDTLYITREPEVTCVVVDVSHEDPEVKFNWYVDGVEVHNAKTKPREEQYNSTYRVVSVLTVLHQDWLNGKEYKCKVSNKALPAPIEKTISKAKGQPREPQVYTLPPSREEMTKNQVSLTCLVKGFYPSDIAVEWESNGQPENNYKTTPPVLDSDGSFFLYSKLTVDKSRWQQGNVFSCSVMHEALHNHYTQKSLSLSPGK
# light: DIQLTQSPSSLSASVGDRVTITCRASQGISSYLAWYQQKPGKAPKLLIYAASTLQSGVPSRFSGSGSGTDFTLTISSLQPEDFATYYCQQLSSYPLTFGGGTKVEIKRTVAAPSVFIFPPSDEQLKSGTASVVCLLNNFYPREAKVQWKVDNALQSGNSQESVTEQDSKDSTYSLSSTLTLSKADYEKHKVYACEVTHQGLSSPVTKSFNRGEC
# B6: anti-PcrV/anti-Psl bispecific antibody STS7B159S (bispecific antibody)
# heavy: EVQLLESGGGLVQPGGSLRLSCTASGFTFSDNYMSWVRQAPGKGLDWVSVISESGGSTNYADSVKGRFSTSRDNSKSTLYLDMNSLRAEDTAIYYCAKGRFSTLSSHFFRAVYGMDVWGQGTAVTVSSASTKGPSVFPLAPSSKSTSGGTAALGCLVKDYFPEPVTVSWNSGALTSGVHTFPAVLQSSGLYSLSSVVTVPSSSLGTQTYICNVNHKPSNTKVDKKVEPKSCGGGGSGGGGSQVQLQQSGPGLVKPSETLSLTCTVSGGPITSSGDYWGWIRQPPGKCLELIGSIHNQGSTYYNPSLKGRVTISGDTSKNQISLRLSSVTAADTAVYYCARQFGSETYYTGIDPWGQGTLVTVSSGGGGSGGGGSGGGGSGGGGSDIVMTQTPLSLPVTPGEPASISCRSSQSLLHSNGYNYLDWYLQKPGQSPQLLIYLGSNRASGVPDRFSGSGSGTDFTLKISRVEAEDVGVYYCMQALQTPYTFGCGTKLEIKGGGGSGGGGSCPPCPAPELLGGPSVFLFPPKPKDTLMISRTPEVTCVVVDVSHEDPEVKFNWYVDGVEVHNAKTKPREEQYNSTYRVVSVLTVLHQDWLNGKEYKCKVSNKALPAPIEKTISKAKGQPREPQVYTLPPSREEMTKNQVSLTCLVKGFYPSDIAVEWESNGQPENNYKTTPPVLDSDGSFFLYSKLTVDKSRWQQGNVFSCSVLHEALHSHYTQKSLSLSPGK
# light: DIQLTQSPSSLSASVGDRVTITCRASQGISSYLAWYQQKPGKAPKLLIYAASTLQSGVPSRFSGSGSGTDFTLTISSLQPEDFATYYCQQLSSYPLTFGGGTKVEIKRTVAAPSVFIFPPSDEQLKSGTASVVCLLNNFYPREAKVQWKVDNALQSGNSQESVTEQDSKDSTYSLSSTLTLSKADYEKHKVYACEVTHQGLSSPVTKSFNRGEC
# notes: also called STS7B1595
# B7: anti-PcrV/anti-Psl bispecific antibody STS7B11201S (bispecific antibody)
# heavy: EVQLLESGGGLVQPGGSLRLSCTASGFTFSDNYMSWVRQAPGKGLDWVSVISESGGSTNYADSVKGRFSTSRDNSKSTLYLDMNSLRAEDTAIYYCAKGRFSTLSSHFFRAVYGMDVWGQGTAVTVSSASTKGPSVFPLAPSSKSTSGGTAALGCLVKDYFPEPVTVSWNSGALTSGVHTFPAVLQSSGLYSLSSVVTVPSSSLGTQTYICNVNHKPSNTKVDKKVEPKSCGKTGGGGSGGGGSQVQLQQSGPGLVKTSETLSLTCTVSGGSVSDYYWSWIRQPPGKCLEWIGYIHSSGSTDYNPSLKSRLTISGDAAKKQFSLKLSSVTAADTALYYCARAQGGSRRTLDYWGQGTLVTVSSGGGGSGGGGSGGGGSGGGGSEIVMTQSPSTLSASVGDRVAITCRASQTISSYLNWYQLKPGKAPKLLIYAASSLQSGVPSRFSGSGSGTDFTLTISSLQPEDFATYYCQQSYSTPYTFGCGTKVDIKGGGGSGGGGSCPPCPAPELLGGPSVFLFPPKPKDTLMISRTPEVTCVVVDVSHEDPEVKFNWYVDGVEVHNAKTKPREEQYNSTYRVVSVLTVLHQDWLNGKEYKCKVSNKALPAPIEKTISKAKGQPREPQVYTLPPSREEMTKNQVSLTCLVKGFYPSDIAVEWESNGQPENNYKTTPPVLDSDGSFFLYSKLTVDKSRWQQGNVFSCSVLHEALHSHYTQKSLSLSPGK
# light: DIQLTQSPSSLSASVGDRVTITCRASQGISSYLAWYQQKPGKAPKLLIYAASTLQSGVPSRFSGSGSGTDFTLTISSLQPEDFATYYCQQLSSYPLTFGGGTKVEIKRTVAAPSVFIFPPSDEQLKSGTASVVCLLNNFYPREAKVQWKVDNALQSGNSQESVTEQDSKDSTYSLSSTLTLSKADYEKHKVYACEVTHQGLSSPVTKSFNRGEC
# notes: also called STS7B112015
# B8: anti-PcrV antibody 7B1 (antibody, V domains shown)
# VH: EVQLLESGGGLVQPGGSLRLSCTASGFTFSDNYMSWVRQAPGKGLDWVSVISESGGSTNYADSVKGRFSTSRDNSKSTLYLDMNSLRAEDTAIYYCAKGRFSTLSSHFFRAVYGMDVWGQGTAVTVSS
# VL: DIQLTQSPSSLSASVGDRVTITCRASQGISSYLAWYQQKPGKAPKLLIYAASTLQSGVPSRFSGSGSGTDFTLTISSLQPEDFATYYCQQLSSYPLTFGGGTKVEIK
# notes: Monospecific antibody, optimized from the 13-42 lead
# Molecular target: T1, PcrV protein (Pseudomonas aeruginosa type III secretion system protein) (Pseudomonas aeruginosa)
# T1 construct: The ELISA used 'synthetic PcrV' as plate coat; Biacore and BLI used 'PcrV protein' in solution; also called synthetic PcrV; Full-length PcrV
# Experiment: ELISA on plate-coated synthetic PcrV, detection with goat anti-human Fc-AP and pNPP, OD410
# Procedure: STS7B15925, STS7B1H9 and STS7B112 were further optimized by introducing variants in the VH, VL, and/or Fc, giving rise to STS7B15925M, STS7B15921M, STS7B1H9M, STS7B1H924M, STS7B112M, and STS7B11201M. For the ELISA experiment, synthetic PcrV or PAO1 was used to coat the wells of a 96-well plate. On the following day, after washing with PBST, blocking with 200 μL PBS-milk for an hour, and another wash with PBST, the respective antibodies were added and incubated for an hour at 37° C. The plate was washed with 0.1% TBST 6 times before 100 μL of Goat-anti-human Fc antibody-AP (1:3000 in PBS) was added to each well and incubated for an hour. After washing with 0.1% TBST for 6 times, 50 μL of pNPP (p-nitrophenyl phosphate) was added to each well and color was developed for […] at 37 C. Subsequently, the colorimetric signals were read by a microplate reader at 410 nm. The ELISA results (OD410) were analyzed and the EC50 values were calculated.
row,Binder,binding result
1,B1,binds
2,B2,binds
3,B3,binds
4,B4,binds
5,B5,binds

# Molecular target: T1, PcrV protein (Pseudomonas aeruginosa …)
# Experiment: SPR (BIACORE T200), 25 C; antibody captured on CM5 chip, serial dilutions of PcrV protein injected
# Procedure: Binding affinity (Kd) of selected bispecific antibodies with respect to PcrV at 25° C. was determined using a real-time biosensor surface plasmon resonance assay (BIACORE™ T200). Briefly, the antibody was first captured on a CM5 chip to form an antibody surface. Serial dilutions of PcrV protein were injected over the antibody surface. Binding of antigen to antibody and dissociation of the bound complex were monitored in real time. Equilibrium dissociation constants (Kd) and dissociation rate constants were ascertained by performing kinetic analysis using BIA evaluation software.
Binder,Kd [nM],koff [s⁻¹],kon [M⁻¹ s⁻¹]
B6,0.179,3.13e-05,174000
B7,0.265,4.52e-05,170000
B8,0.335,4.82e-05,144000
